Target: MEF2C (pcDNAMEF2C, mouse MEF2C cDNA) (mouse) (UniProt Q8CFN5)
Assay: cell-based or functional assay

MEF2C (pcDNAMEF2C, mouse MEF2C cDNA) (mouse), sequence (Q8CFN5 whole entry): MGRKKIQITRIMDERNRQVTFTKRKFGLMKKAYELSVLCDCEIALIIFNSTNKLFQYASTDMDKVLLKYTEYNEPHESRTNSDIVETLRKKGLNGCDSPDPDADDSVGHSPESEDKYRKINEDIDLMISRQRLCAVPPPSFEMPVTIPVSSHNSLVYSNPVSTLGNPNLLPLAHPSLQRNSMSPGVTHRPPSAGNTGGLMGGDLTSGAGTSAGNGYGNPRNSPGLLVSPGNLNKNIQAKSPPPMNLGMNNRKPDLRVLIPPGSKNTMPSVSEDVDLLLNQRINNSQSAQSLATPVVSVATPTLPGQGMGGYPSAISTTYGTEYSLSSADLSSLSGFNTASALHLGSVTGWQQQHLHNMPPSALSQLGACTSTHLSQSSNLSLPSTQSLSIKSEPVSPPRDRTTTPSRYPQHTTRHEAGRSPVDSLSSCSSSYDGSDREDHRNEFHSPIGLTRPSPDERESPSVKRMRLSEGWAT

MEF2C-mediated transcriptional activation of the hTnIslow USE (luciferase reporter, co-transfected C2C12 cells): 3 fold
Substance: hMusTRD1α1944aa (pcDNA3.1hMusTRD1α1944aamyc/his) (from UniProt Q9UHL9 1-959)

— patent US20050032696A1
